Experimental data as given in patent publication US20190359687A1 (Bayer, published 2019).

T1: human glycophorin A in the red blood cell membrane (human, UniProt P02724 20-150)
T1 construct: whole, on cells; used for intact RBC, isolated RBC membranes and transfected cells; the assay field tells which; also called GPA; hGPA
T1 sequence (looked up): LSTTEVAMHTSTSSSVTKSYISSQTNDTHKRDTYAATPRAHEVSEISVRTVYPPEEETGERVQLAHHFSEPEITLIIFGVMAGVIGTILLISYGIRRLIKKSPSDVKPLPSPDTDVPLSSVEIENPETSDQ

T2: purified human glycophorin A protein (Sigma, cat # G5017) (human, UniProt P02724 20-150)
T2 construct: mature; also called Sigma hGPA; Sigma GPA
T2 sequence (looked up): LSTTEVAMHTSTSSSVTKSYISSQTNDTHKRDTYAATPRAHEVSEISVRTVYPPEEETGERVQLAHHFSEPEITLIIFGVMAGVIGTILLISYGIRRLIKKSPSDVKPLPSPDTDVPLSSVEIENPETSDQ

T3: recombinant human GPA ectodomain (human, UniProt P02724 20-91)
T3 construct: also called recombinant hGPA ECD; recGPA
T3 sequence: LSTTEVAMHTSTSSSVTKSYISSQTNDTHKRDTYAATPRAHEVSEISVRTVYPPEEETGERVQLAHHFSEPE


Experiments:
[1] = target: T1, human glycophorin A in the red blood …; experiment: ELISA, human RBC membranes;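 note: antibodies bound to isolated human red blood cell membrane ghosts coated on 96-well plates, tested 1.5 h at room temperature, bound antibody quantified with a detection antibody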
[2] = target: T2, purified human glycophorin A protein …; experiment: ELISA, native hGPA
[3] = target: T3, recombinant human GPA ectodomain; experiment: ELISA, rec hGPA ectodomain

Binder | binding by ELISA relative to parental [1] | binding by ELISA relative to parental [2] | binding by ELISA relative to parental [3]
TPP-5316 (Fab, V domains shown, also called VH: (E1Q)) VH: QVQLVQSGAEVKKPGASVKVSCKASGYTFTTYTIHWVRQAPGQGLEWIGYINPSSDYTRYNPKFKDRVTLTTDKSTSTAYMELRSLRSDDTAVYYCQTGTRDYWGQGTTVTVSS VL: DIQLTQSPSFLSASVGDRVTITCSAASSVSYIYWFQQKPGKAPKLLIYSTSTLPSGVPSRFSGSGSGTEYTLTISSLQPEDFATYYCHQRNSFPFTFGQGTKLEIKR | 1.16 | 1.33 | 1.29
TPP-5346 (Fab, V domains shown, also called VL: (Y33A)) VH: EVQLVQSGAEVKKPGASVKVSCKASGYTFTTYTIHWVRQAPGQGLEWIGYINPSSDYTRYNPKFKDRVTLTTDKSTSTAYMELRSLRSDDTAVYYCQTGTRDYWGQGTTVTVSS VL: DIQLTQSPSFLSASVGDRVTITCSAASSVSYIAWFQQKPGKAPKLLIYSTSTLPSGVPSRFSGSGSGTEYTLTISSLQPEDFATYYCHQRNSFPFTFGQGTKLEIKR | 0.42 | – | 0.03
TPP-5320 (Fab, V domains shown, also called VH: (I48M)) VH: EVQLVQSGAEVKKPGASVKVSCKASGYTFTTYTIHWVRQAPGQGLEWMGYINPSSDYTRYNPKFKDRVTLTTDKSTSTAYMELRSLRSDDTAVYYCQTGTRDYWGQGTTVTVSS VL: DIQLTQSPSFLSASVGDRVTITCSAASSVSYIYWFQQKPGKAPKLLIYSTSTLPSGVPSRFSGSGSGTEYTLTISSLQPEDFATYYCHQRNSFPFTFGQGTKLEIKR | 0.99 | 1.24 | 1.35
TPP-5319 (Fab, V domains shown, also called VH: (I34M)) VH: EVQLVQSGAEVKKPGASVKVSCKASGYTFTTYTMHWVRQAPGQGLEWIGYINPSSDYTRYNPKFKDRVTLTTDKSTSTAYMELRSLRSDDTAVYYCQTGTRDYWGQGTTVTVSS VL: DIQLTQSPSFLSASVGDRVTITCSAASSVSYIYWFQQKPGKAPKLLIYSTSTLPSGVPSRFSGSGSGTEYTLTISSLQPEDFATYYCHQRNSFPFTFGQGTKLEIKR | 0.85 | 0.99 | 1.08
TPP-5317 (Fab, V domains shown, also called VH: (T31S)) VH: EVQLVQSGAEVKKPGASVKVSCKASGYTFTSYTIHWVRQAPGQGLEWIGYINPSSDYTRYNPKFKDRVTLTTDKSTSTAYMELRSLRSDDTAVYYCQTGTRDYWGQGTTVTVSS VL: DIQLTQSPSFLSASVGDRVTITCSAASSVSYIYWFQQKPGKAPKLLIYSTSTLPSGVPSRFSGSGSGTEYTLTISSLQPEDFATYYCHQRNSFPFTFGQGTKLEIKR | 0.68 | 1.36 | 1.34

Now from value to binder:

binding by ELISA relative to parental [1] | binding by ELISA relative to parental [2] | binding by ELISA relative to parental [3] | Binder
0.27 | 0.12 | – | TPP-5349 (Fab, V domains shown, also called VL: (T50A)) VH: EVQLVQSGAEVKKPGASVKVSCKASGYTFTTYTIHWVRQAPGQGLEWIGYINPSSDYTRYNPKFKDRVTLTTDKSTSTAYMELRSLRSDDTAVYYCQTGTRDYWGQGTTVTVSS VL: DIQLTQSPSFLSASVGDRVTITCSAASSVSYIYWFQQKPGKAPKLLIYSASTLPSGVPSRFSGSGSGTEYTLTISSLQPEDFATYYCHQRNSFPFTFGQGTKLEIKR
0.2 | – | 0.04 | TPP-5353 (Fab, V domains shown, also called VL: (R90L)) VH: EVQLVQSGAEVKKPGASVKVSCKASGYTFTTYTIHWVRQAPGQGLEWIGYINPSSDYTRYNPKFKDRVTLTTDKSTSTAYMELRSLRSDDTAVYYCQTGTRDYWGQGTTVTVSS VL: DIQLTQSPSFLSASVGDRVTITCSAASSVSYIYWFQQKPGKAPKLLIYSTSTLPSGVPSRFSGSGSGTEYTLTISSLQPEDFATYYCHQLNSFPFTFGQGTKLEIKR
